Square brackets hold non-standard residues; d marks the D form. Peptide text beside a SMILES is read from it. * marks the point of attachment. X3 = O=C(CCCCCNCc1nc2c(sc3cc(Br)cnc32)c(=O)[nH]1)*
Tests used:
Test in all cases: Kinase profiling (radiometric filter-binding)
Assay type in all cases: biochemical
PHK = PHK (Homo sapiens, UniProt Q16816); settings: 1 µM inhibitor, read-out: Residual activity, %
Summary of the method: (§1)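 Single-point selectivity screen at 1 µM total inhibitor concentration across a panel of 139 or 140 human PKs, using radioactive filter-binding detection with ATP near or below KM; data are % activity remaining versus untreated control.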

EPH-B1 = molecular target: T1, EPH-B1 (Homo sapiens, UniProt P54762); settings: EPH-B1, 1 µM inhibitor; read-out: Residual activity, %
T1 sequence (P54762 18-984): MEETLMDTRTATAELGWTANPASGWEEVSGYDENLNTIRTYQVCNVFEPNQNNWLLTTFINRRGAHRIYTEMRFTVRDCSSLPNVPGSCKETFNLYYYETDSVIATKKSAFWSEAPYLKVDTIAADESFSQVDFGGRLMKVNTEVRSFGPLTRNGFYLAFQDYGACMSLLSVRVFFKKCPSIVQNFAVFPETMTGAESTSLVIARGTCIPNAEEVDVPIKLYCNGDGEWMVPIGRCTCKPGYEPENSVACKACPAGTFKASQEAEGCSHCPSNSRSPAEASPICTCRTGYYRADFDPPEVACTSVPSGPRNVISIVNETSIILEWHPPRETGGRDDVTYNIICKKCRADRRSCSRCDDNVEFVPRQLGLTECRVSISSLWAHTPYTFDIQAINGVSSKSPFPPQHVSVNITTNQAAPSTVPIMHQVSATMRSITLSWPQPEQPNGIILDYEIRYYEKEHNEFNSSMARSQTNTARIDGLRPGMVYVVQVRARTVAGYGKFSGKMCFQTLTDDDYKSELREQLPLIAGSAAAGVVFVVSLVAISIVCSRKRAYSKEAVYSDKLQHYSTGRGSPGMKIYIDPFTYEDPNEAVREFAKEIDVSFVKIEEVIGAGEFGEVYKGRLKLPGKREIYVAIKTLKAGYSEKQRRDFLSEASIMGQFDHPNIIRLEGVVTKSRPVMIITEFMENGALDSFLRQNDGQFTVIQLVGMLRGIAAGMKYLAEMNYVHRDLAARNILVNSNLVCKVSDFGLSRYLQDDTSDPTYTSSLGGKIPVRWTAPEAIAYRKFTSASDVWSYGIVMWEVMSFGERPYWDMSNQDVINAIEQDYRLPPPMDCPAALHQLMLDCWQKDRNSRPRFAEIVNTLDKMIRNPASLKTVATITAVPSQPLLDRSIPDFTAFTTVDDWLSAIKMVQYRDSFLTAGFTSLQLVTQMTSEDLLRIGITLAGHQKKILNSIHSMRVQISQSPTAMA
Summary of the method: as §1

TTBK1 = TTBK1 (Homo sapiens, UniProt Q5TCY1); settings: TTBK1, 1 µM inhibitor; read-out: Residual activity, %
Summary of the method: as §1

EPH-B3 = molecular target: T2, EPH-B3 (Homo sapiens, UniProt P54753); settings: EPH-B3, 1 µM inhibitor; read-out: Residual activity, %
T2 sequence (P54753 34-998): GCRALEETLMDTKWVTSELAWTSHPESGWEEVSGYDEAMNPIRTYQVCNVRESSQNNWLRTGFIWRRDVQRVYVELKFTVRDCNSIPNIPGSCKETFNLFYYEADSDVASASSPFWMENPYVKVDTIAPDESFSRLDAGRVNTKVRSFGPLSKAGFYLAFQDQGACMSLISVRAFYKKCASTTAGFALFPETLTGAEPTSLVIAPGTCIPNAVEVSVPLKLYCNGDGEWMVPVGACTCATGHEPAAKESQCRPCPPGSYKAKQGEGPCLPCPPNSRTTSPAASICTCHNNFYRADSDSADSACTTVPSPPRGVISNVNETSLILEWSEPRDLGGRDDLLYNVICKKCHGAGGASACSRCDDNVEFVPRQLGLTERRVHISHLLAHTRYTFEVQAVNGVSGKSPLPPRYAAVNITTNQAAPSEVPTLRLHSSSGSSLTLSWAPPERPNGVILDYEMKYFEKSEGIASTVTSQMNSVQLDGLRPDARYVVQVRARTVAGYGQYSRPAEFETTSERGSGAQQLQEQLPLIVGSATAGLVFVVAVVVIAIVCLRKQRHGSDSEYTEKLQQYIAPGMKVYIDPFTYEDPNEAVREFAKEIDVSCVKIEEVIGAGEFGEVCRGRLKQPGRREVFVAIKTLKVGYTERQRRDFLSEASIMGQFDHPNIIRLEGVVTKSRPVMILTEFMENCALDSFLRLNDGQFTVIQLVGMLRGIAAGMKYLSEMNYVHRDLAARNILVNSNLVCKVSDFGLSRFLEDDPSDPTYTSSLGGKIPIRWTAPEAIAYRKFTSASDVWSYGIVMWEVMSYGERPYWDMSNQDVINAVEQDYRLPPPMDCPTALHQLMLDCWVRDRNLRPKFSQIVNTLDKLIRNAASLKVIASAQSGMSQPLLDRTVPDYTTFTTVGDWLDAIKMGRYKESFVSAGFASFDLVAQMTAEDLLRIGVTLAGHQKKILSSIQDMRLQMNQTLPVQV
Summary of the method: as §1

DAPK1 = DAPK1 (Homo sapiens, UniProt P53355); settings: DAPK1, 1 µM inhibitor; read-out: Residual activity, %
Summary of the method: as §1

PHK, sequence (Q16816 whole entry): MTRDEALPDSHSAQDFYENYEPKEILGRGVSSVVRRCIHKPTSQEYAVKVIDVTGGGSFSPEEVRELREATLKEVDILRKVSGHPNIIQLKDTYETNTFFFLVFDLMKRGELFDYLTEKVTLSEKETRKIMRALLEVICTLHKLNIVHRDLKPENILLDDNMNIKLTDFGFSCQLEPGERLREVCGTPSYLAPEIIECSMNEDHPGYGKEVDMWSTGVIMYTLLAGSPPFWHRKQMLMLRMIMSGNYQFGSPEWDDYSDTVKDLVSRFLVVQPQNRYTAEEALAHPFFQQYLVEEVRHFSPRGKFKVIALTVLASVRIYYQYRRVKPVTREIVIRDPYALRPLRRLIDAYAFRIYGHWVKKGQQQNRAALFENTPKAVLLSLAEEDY
TTBK1, sequence (Q5TCY1 whole entry): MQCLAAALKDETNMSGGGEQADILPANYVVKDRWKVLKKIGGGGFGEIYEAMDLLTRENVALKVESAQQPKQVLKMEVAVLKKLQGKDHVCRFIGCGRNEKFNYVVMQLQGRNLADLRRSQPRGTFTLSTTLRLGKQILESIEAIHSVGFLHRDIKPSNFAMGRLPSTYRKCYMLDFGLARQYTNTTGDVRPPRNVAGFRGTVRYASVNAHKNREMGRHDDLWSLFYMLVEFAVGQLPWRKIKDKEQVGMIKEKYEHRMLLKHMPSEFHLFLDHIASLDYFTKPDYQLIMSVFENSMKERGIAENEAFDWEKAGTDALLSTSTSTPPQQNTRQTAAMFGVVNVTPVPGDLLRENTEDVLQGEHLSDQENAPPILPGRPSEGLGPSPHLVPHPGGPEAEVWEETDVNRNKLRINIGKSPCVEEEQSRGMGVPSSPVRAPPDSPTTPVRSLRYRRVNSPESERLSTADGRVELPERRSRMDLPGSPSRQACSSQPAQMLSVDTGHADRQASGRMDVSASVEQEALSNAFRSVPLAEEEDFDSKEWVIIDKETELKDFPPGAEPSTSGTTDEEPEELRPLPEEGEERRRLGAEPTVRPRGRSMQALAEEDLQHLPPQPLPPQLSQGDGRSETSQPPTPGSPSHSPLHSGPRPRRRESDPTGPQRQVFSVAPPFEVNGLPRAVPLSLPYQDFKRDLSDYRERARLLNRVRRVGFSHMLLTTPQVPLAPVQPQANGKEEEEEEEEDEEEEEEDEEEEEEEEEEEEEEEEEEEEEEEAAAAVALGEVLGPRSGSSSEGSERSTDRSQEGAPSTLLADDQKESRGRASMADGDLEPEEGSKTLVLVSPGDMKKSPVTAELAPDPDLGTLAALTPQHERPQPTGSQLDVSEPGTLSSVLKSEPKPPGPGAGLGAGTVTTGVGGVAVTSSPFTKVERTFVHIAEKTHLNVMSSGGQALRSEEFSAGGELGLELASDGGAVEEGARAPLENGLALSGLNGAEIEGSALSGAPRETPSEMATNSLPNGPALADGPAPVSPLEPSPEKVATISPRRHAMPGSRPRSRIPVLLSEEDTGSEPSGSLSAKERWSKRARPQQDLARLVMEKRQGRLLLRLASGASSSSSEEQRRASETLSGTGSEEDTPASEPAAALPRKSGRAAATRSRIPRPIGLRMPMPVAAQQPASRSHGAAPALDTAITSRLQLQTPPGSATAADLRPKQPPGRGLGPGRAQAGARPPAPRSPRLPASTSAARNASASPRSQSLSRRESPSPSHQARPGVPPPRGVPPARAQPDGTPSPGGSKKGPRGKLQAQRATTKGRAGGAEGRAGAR
DAPK1, sequence (P53355 whole entry): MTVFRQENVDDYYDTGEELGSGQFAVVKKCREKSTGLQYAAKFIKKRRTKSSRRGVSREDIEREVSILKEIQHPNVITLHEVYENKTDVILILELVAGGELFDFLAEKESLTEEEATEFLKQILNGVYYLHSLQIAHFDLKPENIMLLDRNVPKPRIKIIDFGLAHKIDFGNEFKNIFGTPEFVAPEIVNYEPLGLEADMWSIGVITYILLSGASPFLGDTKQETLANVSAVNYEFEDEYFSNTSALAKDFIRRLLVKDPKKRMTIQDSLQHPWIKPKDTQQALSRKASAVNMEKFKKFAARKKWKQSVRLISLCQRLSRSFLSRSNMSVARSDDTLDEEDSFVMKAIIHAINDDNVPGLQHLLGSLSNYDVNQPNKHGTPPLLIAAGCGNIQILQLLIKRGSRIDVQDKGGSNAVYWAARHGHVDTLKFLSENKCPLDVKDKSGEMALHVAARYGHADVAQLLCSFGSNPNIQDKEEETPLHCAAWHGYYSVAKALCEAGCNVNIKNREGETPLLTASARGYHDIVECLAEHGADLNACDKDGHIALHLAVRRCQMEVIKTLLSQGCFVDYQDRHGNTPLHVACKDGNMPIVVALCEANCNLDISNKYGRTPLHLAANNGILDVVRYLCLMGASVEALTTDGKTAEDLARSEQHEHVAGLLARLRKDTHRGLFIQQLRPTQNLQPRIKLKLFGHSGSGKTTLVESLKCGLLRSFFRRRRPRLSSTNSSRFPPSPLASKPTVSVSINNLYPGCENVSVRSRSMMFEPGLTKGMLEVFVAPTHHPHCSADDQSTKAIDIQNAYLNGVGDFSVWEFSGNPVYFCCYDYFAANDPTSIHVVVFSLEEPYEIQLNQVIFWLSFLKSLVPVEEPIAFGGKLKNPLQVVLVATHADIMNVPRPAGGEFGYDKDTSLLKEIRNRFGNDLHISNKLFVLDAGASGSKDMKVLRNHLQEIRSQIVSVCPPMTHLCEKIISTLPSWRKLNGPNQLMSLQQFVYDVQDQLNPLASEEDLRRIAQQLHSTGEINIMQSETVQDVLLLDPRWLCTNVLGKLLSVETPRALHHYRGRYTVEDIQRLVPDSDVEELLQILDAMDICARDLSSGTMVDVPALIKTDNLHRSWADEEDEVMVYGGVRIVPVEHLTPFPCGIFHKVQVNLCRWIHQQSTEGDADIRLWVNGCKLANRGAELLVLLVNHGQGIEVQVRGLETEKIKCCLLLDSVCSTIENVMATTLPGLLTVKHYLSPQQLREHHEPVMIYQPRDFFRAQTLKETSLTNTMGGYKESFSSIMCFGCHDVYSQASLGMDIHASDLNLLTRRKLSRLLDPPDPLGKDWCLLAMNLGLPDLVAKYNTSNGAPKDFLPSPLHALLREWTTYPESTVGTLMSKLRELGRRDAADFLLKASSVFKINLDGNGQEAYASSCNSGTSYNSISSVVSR

SMILES	remaining activity at 1 µM (PHK) [%]	remaining activity at 1 µM (EPH-B1) [%]	remaining activity at 1 µM (TTBK1) [%]	remaining activity at 1 µM (EPH-B3) [%]	remaining activity at 1 µM (DAPK1) [%]
N=C(N)NCCC[C@@H](NC(=O)CCCCCNC(=O)Cn1cnc2c(I)c(I)c(I)c(I)c21)C(=O)N[C@H](CCCNC(=N)N)C(=O)N[C@H](CCCNC(=N)N)C(=O)N[C@H](CCCNC(=N)N)C(=O)N[C@H](CCCNC(=N)N)C(=O)N[C@H](CCCNC(=N)N)C(=O)N[C@H](CCCCN)C(N)=O [ARC-3125, TIBI-CH2-C(=O)-Ahx-(D-Arg)6-D-Lys-NH2]	104 ± 11	106 ± 12	123 ± 25	104 ± 3	18 ± 1
N=C(N)NCCC[C@@H](NC(=O)CCCCCNCc1nc2c(sc3cc(Br)cnc32)c(=O)[nH]1)C(=O)N[C@H](CCCNC(=N)N)C(=O)N[C@H](CCCNC(=N)N)C(=O)N[C@H](CCCNC(=N)N)C(=O)N[C@H](CCCNC(=N)N)C(=O)N[C@H](CCCNC(=N)N)C(=O)N[C@H](CCCCN)C(N)=O [ARC-3126, BPTP-Ahx-(D-Arg)6-D-Lys-NH2] (X3-[dR][dR][dR][dR][dR][dR][dK]-NH2)	128 ± 10	96 ± 6	103 ± 4	94 ± 10	49 ± 18
N=C(N)NCCC[C@@H](NC(=O)CNC(=O)[C@@H](CCCNC(=N)N)NC(=O)[C@@H](CCCNC(=N)N)NC(=O)CCCCCCCNCc1nc2c(sc3cc(Br)cnc32)c(=O)[nH]1)C(=O)N[C@H](CCCCN)C(N)=O [Compound 1, BPTP-Aoc-(D-Arg)2-Gly-D-Arg-D-Lys-NH2]	109 ± 3	103 ± 9	116 ± 5	107 ± 26	85 ± 3
N=C(N)NCCC[C@@H](NC(=O)CNC(=O)[C@@H](CCCNC(=N)N)NC(=O)[C@@H](CCCNC(=N)N)NC(=O)CCCCCCCNCc1nc2c(sc3ccc(Br)cc32)c(=O)[nH]1)C(=O)N[C@H](CCCCN)C(N)=O [Compound 2, BBTP-Aoc-(D-Arg)2-Gly-D-Arg-D-Lys-NH2]	98 ± 4	99 ± 15	97 ± 7	106 ± 2	60 ± 11
N=C(N)NCCC[C@@H](NC(=O)CNC(=O)[C@@H](CCCNC(=N)N)NC(=O)[C@@H](CCCNC(=N)N)NC(=O)Cn1cc(CNCc2nc3c(sc4ccc(Br)cc43)c(=O)[nH]2)nn1)C(=O)N[C@H](CCCCN)C(N)=O [Compound 3, BBTP-Amt-(D-Arg)2-Gly-D-Arg-D-Lys-NH2]	78 ± 6	106 ± 11	99 ± 6	79 ± 3	88 ± 3
